Measured values reported in paper PMC2593004, “Evolutionary Diversification of Plant Shikimate Kinase Gene Duplicates” (PLoS Genetics, 2008).

How the values were obtained:
purified protein [1] = substrate: Nc1ncnc2c1ncn2[C@@H]1O[C@H](COP(=O)(O)OP(=O)(O)OP(=O)(O)O)[C@@H](O)[C@H]1O; assay: purified protein; type: biochemical, Arabidopsis thaliana; settings: apparent Km, 2.5 mM shikimate fixed, 100 mM Tris-HCl pH 8.0, 25°C
purified protein [2] = substrate: O=C(O)C1=C[C@@H](O)[C@@H](O)[C@H](O)C1; assay: purified protein; type: biochemical, Arabidopsis thaliana; settings: apparent Km, 2.5 mM ATP fixed, 100 mM Tris-HCl pH 8.0, 25°C

B1: AtSK1Δ55 (Arabidopsis thaliana) (protein)
chain: DQRRAVSPAVSCSDNNSSALLETGSVYPFDEDILKRKAEEVKPYLNGRSMYLVGMMGSGKTTVGKLMSKVLGYTFFDCDTLIEQAMNGTSVAEIFVHHGENFFRGKETDALKKLSSRYQVVVSTGGGAVIRPINWKYMHKGISIWLDVPLEALAHRIAAVGTDSRPLLHDESGDAYSVAFKRLSAIWDERGEAYTNANARVSLENIAAKRGYKNVSDLTPTEIAIEAFEQVLSFLEKEETMEIPDGDL
notes: predicted N-terminal chloroplast transit peptide removed (55 residues truncated)
Km (purified protein [1]): 218.02 ± 12.27 µM | kcat (purified protein [1]): 162 ± 3.01 s⁻¹ | Km (purified protein [2]): 648.32 ± 23.45 µM | kcat (purified protein [2]): 148 ± 2.32 s⁻¹

B2: AtSK2Δ55 (Arabidopsis thaliana) (protein)
chain: LRSVSDKNSSALLETGSLLHSPFDEEQQILKKKAEEVKPYLNGRSMYLVGMMGSGKTTVGKIMARSLGYTFFDCDTLIEQAMKGTSVAEIFEHFGESVFREKETEALKKLSLMYHQVVVSTGGGAVIRPINWKYMHKGISIWLDVPLEALAHRIAAVGTGSRPLLHDDESGDTYTAALNRLSTIWDARGEAYTKASARVSLENITLKLGYRSVSDLTPAEIAIEAFEQVQSYLEKEDGMARPDGL
notes: as for B1
Km (purified protein [1]): 246.7 ± 22.56 µM | kcat (purified protein [1]): 149 ± 5.04 s⁻¹ | Km (purified protein [2]): 422.15 ± 31.16 µM | kcat (purified protein [2]): 136 ± 4.97 s⁻¹
